From the Human Domainome abundance scans (Beltran et al. 2025)

B1: Protein piccolo, residues 1058 to 1114; numbered along this chain, Q9Y6V0 (parent)
chain: TCPLCKTELNIGSKDPPNFNTCTECKNQVCNLCGFNPTPHLTEIQEWLCLNCQTQRA

Variants of: B1
Test: abundance fitness (aPCA) (normalised: wild type 0, dead -1); higher = more abundant; growth selection in yeast, the domain comes from the species named
Conditions: Homo sapiens

Abundance fitness of substitutions, site by site:
C5: S -0.68, T -0.872, W -0.96, Y -0.947
K6: A -0.097, C -0.329, D -0.298, E -0.069, G -0.507, H -0.142, I -0.087, N 0.071, P 0.104, Q -0.02, R -0.283, S 0.059, T -0.107, V -0.215, W -0.795, Y -0.18
T7: A -0.063, C -0.56, E 0.094, F -0.342, G -0.011, H -0.168, I -0.31, K 0.043, L -0.15, M -0.301, N -0.007, Q 0.019, R -0.056, S -0.09, W -0.797, Y -0.34
E8: A -0.244, C -0.56, D -0.14, F -0.431, G -0.052, H -0.479, I -0.153, L -0.252, M -0.011, N -0.488, P -0.09, Q -0.178, R -0.206, W -0.517, Y -0.679
L9: A 0.032, C -0.201, D -0.138, E -0.11, F 0.007, G -0.047, H -0.231, I -0.098, K 0.026, M 0.145, N -0.174, P -0.197, Q -0.128, R -0.156, S -0.042, T -0.081, V -0.056, W -0.419, Y -0.181
N10: A 0.041, D -0.245, E -0.022, F -0.103, H -0.608, K 0.2, L -0.204, M 0.042, Q -0.005, R -0.274, S -0.08, T 0.062, V -0.211, W -0.676
I11: A -0.153, C -0.133, E 0.172, F -0.063, H 0.054, K -0.104, L -0.22, M 0.039, N 0.037, P 0.11, Q 0.065, R -0.112, S -0.026, T -0.099, V -0.046, W -0.333, Y 0.086
G12: A -0.361, C 0.077, D 0.357, E 0.092, F -0.203, H -0.182, I 0.154, K -0.216, L -0.039, N -0.611, P 0.027, Q -0.3, R -0.05, T 0.035, V -0.405, W -0.326, Y -0.137
S13: A -0.37, C -0.384, D -0.463, E -0.257, F -0.148, G -0.525, H -0.079, I -0.21, K 0.209, L -0.23, M 0.012, N -0.146, P -0.062, Q 0.135, R -0.264, T -0.048, V -0.456, Y -0.227
K14: A -0.079, C -0.643, D 0.003, E -0.226, F -0.36, G 0.021, H 0.056, I -0.653, L -0.644, M -0.128, N -0.016, P -0.116, Q -0.092, R 0.042, S -0.126, T 0.013, V 0.039, W -0.525, Y -0.554
D15: A -0.138, C -0.152, E -0.248, F 0.003, G -0.124, H -0.239, I 0.01, K -0.014, L 0.015, M -0.053, N 0.02, P -0.273
